Test results published in PMC12485133, “An active allosteric mechanism in ASAP1-mediated Arf1 GTP hydrolysis redefines PH domain function” (Nature Communications, 2025).

Key:
[1] = molecular target: T1, N-myristoylated human Arf1 bound to GTPγS, anchored on nanodiscs (myrArf1·GTPγS) (human, UniProt P84077 1-181, N-terminal myristoyl); assay: cell-based or functional assay
[2] = molecular target: T1, N-myristoylated human Arf1 bound to …; assay: not stated; binding of PH variants and Arf variants compared with wild type (Fig. SI8 and Table SI1); the method is not given; conditions: both partners purified
[3] = molecular target: T2, ASAP1 ZA domain (Arf GAP domain and ankyrin repeats), residues 447-724 of ASAP1 (UniProt Q9QWY8 447-724); assay: intermolecular PRE NMR; Cys159-MTSL myrArf1 (non-hydrolysable GTP analog), alone or in complex with wt PH, on nanodiscs; 100 μM Arf or Arf:PH and 100 μM isotopically labeled ZA; conditions: both partners purified
T2 construct: Mouse is stated only for the PH domain constructs; the same residue numbers are used; Isotopically labelled in the PRE experiment; also called ^ΔPHZA; isolated ZA domain
T2 sequence (looked up): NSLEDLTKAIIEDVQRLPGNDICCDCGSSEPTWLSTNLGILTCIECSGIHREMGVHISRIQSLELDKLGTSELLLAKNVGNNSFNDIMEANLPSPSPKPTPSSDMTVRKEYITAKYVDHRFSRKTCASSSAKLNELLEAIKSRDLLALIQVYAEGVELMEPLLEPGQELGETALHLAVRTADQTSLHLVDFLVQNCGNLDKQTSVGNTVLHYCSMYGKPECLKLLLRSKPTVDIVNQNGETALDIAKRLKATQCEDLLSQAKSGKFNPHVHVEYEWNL

myrArf1 Glu54Ala [4] = molecular target: T3, myrArf1 Glu54Ala (human, UniProt P84077 1-181, Glu54Ala, N-terminal myristoyl); assay: cell-based or functional assay
[5] = molecular target: T4, MTSL-tagged myrArf1 with Lys73 replaced by Cys (Cys159 mutated to Ala), GTPγS, on nanodiscs (human, UniProt P84077 1-181, Cys159 mutated to Ala | Lys73 replaced with Cys, N-terminal myristoyl; MTSL nitroxide spin label on Cys73 via a disulfide bond); assay: intermolecular PRE NMR; 60 μM protiated MTSL-labelled myrArf1 variants on nanodiscs, 50 μM methyl-labelled ASAP1 PH, 25 °C; paramagnetic against ascorbate-reduced sample; conditions: both partners purified
T4 construct: human Arf1, Uniprot P84077, mono-cysteine variant; also called spin-labeled myrArf1 variant (Lys73 to Cys); source: E. coli BL21 Star (DE3), co-expressed with yeast NMT, purified; spin-labelled on nanodiscs

[6] = molecular target: T5, MTSL-tagged myrArf1 K38C (Cys159 mutated to Ala), GTPγS, on nanodiscs (human, UniProt P84077 1-181, Cys159 mutated to Ala | K38C, N-terminal myristoyl; MTSL nitroxide spin label on Cys38 via a disulfide bond); assay: as above; conditions: both partners purified
T5 construct: human Arf1, Uniprot P84077, mono-cysteine variant; source: E. coli BL21 Star (DE3), co-expressed with yeast NMT, purified; spin-labelled on nanodiscs

myrArf1 Glu54Ala [7] = molecular target: T3, myrArf1 Glu54Ala; assay: not stated; binding of PH variants and Arf variants compared with wild type (Fig. SI8 and Table SI1); the method is not given; conditions: both partners purified

T1 sequence (P84077 whole entry): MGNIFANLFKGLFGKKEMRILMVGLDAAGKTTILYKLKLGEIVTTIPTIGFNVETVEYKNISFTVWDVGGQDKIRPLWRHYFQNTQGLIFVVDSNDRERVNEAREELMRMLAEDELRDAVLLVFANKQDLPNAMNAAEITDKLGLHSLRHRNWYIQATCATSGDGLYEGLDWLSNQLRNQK
T3 sequence (P84077 whole entry E54A): as the sequence (P84077 whole entry) above, with E54A counted along it
T4 sequence (P84077 other isoform, or with tags, fused parts or gaps with the stated changes): as the sequence (P84077 whole entry) above, with K73C, C159A counted along it
T5 sequence (P84077 other isoform, or with tags, fused parts or gaps with the stated changes): as the sequence (P84077 whole entry) above, with K38C, C159A counted along it

B1: ΔN14 ASAP1 PH domain, [339-451]ASAP1 (domain or fragment, mouse, UniProt Q9QWY8 339-451, looked up)
chain: GSEKKGFLLKKSDGIRKVWQRRKCAVKNGILTISHATSNRQPAKLNLLTCQVKPNAEDKKSFDLISHNRTYHFQAEDEQDYIAWISVLTNSKEEALTMAFRGEQSTGENSLED
notes: mouse ASAP1, PH domain with shortened N-terminal extension, residues 339-451; tied by counting 14 residues from 325; also called ^ΔN14PH; source: E. coli BL21 Star (DE3) or BL21 (DE3), purified (HiTrap SP, SEC)
fold decrease in GAP activity compared with PH [1]: 100 fold | fold weaker binding than wt PH [2]: 2 fold

B2: Cys159-MTSL tagged myrArf1 bound to a non-hydrolysable GTP analog, on nanodiscs (natural protein)
chain: not shown
modifications: N-terminal myristoyl; MTSL nitroxide spin label on Cys159
notes: human Arf1, Uniprot P84077, native Cys159 spin-labelled; source: E. coli BL21 Star (DE3), co-expressed with yeast NMT, purified; spin-labelled on nanodiscs
Kd [3]: 100 to 1000 µM

B3: wild-type ASAP1 PH domain, [325-451]ASAP1 (domain or fragment, mouse, UniProt Q9QWY8 325-451, looked up)
chain: GGYSMHQLQGNKEYGSEKKGFLLKKSDGIRKVWQRRKCAVKNGILTISHATSNRQPAKLNLLTCQVKPNAEDKKSFDLISHNRTYHFQAEDEQDYIAWISVLTNSKEEALTMAFRGEQSTGENSLED
notes: mouse ASAP1, PH domain with its N-terminal extension, residues 325-451; also called wt PH
fold decrease in GAP activity on Arf1 Glu54Ala compared with wild type (C50 of PZA, Fig. 7C) (myrArf1 Glu54Ala [4]): 70 fold | binding result [5]: binds | binding result [6]: binds | fold reduction of binding against wild type (myrArf1 Glu54Ala [7]): 2 fold
